This assay concerns the target RXFP1 construct pVL-11 (FLAG-eGFP-M82-S707-Avi) (human) (UniProt Q9HBX9). Description: SPR; receptor constructs captured via biotinylated Avi-tag on an SA chip (3000-5000 RU), Biacore T200, 20°C; running buffer 20 mM HEPES pH 7.5, 150 mM NaCl, 0.01% BSA, 0.1% DDM, 0.01% CHS; relaxin injected at 0.41-100 nM; kinetic fits; triplicates. (In general: In SPR one partner is held on a chip, and binding of the other changes the refractive index at the surface.)
Sequence of UniProt Q9HBX9 (Q9HBX9 82-707): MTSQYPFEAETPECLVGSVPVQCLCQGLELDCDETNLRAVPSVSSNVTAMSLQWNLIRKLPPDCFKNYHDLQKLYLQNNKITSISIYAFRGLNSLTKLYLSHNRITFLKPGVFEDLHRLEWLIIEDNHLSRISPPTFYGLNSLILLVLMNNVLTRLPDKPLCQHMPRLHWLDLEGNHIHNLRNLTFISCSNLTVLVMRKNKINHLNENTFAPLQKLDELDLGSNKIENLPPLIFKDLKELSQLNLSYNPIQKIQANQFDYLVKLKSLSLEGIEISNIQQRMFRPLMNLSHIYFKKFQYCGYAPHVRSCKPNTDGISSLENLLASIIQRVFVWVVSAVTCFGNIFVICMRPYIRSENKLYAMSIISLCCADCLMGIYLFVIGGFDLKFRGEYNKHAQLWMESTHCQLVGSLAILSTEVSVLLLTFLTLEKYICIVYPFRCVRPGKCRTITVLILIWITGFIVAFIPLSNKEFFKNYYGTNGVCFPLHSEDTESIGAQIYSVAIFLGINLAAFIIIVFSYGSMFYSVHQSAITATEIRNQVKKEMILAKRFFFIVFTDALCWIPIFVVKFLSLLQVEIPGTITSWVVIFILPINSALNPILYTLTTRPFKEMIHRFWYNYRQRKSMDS

For the substance Relaxin H2 (human) (ligand), the Kd (as a rule, the concentration at which binding is half-saturated) came out at 20 nM.
